In US20220324956A1:
Changes are numbered by the printed parent chain. One block for each binder: values may come before it.

Assays:
[1] = molecular target: recombinant human osteopontin protein (GST-OPN-his, purified in house) (human) (UniProt P10451); experiment: cell-based or functional assay
[2] = substrate: OPN antigen peptide YGLRSKS labeled with biotin (mouse and human (same sequence around the thrombin cleavage site)); experiment: direct ELISA, biotinylated peptide on avidin-coated plate, purified IgG serially diluted, 4-parameter fit

Sequence of UniProt P10451 (P10451 17-314): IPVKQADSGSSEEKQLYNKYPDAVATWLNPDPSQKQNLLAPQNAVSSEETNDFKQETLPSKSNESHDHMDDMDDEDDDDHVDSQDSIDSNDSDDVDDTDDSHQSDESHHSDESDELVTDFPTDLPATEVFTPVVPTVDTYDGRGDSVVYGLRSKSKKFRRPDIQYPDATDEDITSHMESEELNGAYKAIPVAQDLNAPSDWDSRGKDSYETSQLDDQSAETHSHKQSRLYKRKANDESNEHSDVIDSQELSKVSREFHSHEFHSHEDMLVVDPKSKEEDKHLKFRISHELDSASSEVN

% inhibition of thrombin cleavage of human OPN-FL (OPN-R generated, OPN-R specific ELISA) [1]: 82% | EC50 [2]: 2.6 ng/mL
B1: A2 rabbit monoclonal anti-osteopontin antibody (antibody, V domains shown)
VH: QSVKESEGGLFKPTDTLTLTCKASGFTVSSYDMGWLRQAPGNGLESIGAIGSDGSEYYVSWARGRTAITRNTNQNTVTLKMTSLTAADTATYFCARDSHYSYGYDYDIWGPGTLVTVSS
VL: QVLTQTPSPVSAAVGGTVSISCQSSQSIYSNYLSWYQQKPGQPPKLLIYYASTLASGVPSRFKGSGSGTQFTLTISGVQCDDAATYYCQGTYYVTGWYDAFGGGTEVVVKG

% inhibition of thrombin cleavage of human OPN-FL (OPN-R generated, OPN-R specific ELISA) [1]: 95.4% | EC50 [2]: 3.2 ng/mL
B2: A6 rabbit monoclonal anti-osteopontin antibody (antibody, V domains shown)
VH: B1 VH with A67T
VL: B1 VL

% inhibition of thrombin cleavage of human OPN-FL (OPN-R generated, OPN-R specific ELISA) [1]: 60.1% | EC50 [2]: 93.2 ng/mL
B3: G7 rabbit monoclonal anti-osteopontin antibody (antibody, V domains shown)
VH: QSVKESEGGLFKPTDTLTLTCTVSGFSLSSYGVSWVRQAPGNGLEWIGFIDKYGRTHYASWAKSRSTITRNTNENTVTLKMTSLTAADTATFLCARDDYRPAYGFDIWGPGTLVTVSS
VL: QVLTQTASPVSAAVGSTVTINCQASQSVYNNNWLSWFQQKPGQPPKQLIYGASTLPSGVSSRFKGSGSGTQFTLTISDVQCDDAATYYCLGGYHWSTADCNVFGGGTEVVVKG
